Results on 1 substance are retold here after publication doi:10.1101/2020.04.13.035477.

For orientation: pKd means −log10 of the Kd, conventionally taken in molar units. Usually koff stands for the first-order rate constant of dissociation. A low value points to slow dissociation.

pKd: −log10 of the molar value.

Common to all, as to experiment: SPR
Background: SPR reads the build-up and loss of mass on a sensor chip optically.

Assay [1] has as its target HpARI_CCP2/3 (truncation of HpARI lacking CCP1) (Heligmosomoides polygyrus).
The target of assay [2] is H. polygyrus Alarmin Release Inhibitor (HpARI), full-length (Heligmosomoides polygyrus).
Assay [3] concerns the target HpARI_CCP1/2 (truncation of HpARI lacking CCP3) (Heligmosomoides polygyrus).

HpARI_CCP1/2 (truncation of HpARI lacking CCP3) (Heligmosomoides polygyrus), sequence (A0A3P7XL18 65-211): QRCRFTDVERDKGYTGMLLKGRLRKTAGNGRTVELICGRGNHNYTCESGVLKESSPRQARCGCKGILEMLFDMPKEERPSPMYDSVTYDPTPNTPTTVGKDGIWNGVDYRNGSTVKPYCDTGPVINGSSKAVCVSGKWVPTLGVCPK
HpARI_CCP2/3 (truncation of HpARI lacking CCP1) (Heligmosomoides polygyrus), sequence (A0A3P7XL18 126-297): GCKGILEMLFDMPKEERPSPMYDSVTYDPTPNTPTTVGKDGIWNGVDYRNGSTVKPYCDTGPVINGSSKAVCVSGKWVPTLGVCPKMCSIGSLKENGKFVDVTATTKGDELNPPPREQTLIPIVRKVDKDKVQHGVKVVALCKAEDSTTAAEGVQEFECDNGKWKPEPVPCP

On to “recombinant murine IL-33 (from UniProt Q8BVZ5 1-266) (ligand)”, for which the figures for the pKd in assay [1], in assay [2] and in assay [3] were 8.85, 8.96 and 8.01, respectively. Besides, the off-rate (koff) was 0.00015 s⁻¹ in assay [2] and 0.003 s⁻¹ in assay [3].
